Experimental data published in article PMC10902388.

Columns and labels:
E6AP-Nanoluc (human) [1] = biological target: E6AP-Nanoluc (human) (UniProt Q05086); assay: FRET or BRET
E6AP-Nanoluc (human) [2] = biological target: E6AP-Nanoluc (human) (UniProt Q05086); assay: SPR

Sequence of E6AP-Nanoluc (human) (Q05086 whole entry): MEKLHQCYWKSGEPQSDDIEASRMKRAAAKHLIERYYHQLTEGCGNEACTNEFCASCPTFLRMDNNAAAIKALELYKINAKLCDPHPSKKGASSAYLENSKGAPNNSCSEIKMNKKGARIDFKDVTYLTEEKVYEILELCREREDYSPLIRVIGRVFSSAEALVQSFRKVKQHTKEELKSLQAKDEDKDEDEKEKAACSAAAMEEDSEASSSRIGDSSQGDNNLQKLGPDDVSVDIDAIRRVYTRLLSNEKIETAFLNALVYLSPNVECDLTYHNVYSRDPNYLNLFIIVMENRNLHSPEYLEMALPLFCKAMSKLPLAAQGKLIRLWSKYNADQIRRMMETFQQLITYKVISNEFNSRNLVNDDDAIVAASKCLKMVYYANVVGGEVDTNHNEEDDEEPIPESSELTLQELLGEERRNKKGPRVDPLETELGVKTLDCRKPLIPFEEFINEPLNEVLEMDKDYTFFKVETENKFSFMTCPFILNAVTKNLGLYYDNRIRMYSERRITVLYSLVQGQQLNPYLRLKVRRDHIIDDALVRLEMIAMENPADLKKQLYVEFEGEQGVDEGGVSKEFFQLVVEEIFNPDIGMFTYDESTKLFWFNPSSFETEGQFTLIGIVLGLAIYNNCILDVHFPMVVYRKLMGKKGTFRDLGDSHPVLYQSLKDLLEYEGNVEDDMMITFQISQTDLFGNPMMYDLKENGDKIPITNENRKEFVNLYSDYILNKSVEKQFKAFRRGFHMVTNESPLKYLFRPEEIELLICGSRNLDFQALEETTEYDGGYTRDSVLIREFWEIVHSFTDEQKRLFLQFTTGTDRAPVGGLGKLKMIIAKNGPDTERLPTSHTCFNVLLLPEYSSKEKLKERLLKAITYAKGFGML

MBP-16E6-HaloTag protein (from UniProt P03126) (natural protein)
Kd (E6AP-Nanoluc (human) [1]): 15.3 nM
Kd (E6AP-Nanoluc (human) [2]): 4 nM
